Experiment [1] concerns the target HLA-A*68:02. As to the kind of experiment: IEDB peptide-MHC binding, purified MHC/competitive/radioactivity; filed as Kd, often an IC50 or EC50 that approximates it; ≥ and ≤ were set here for values at or beyond the usual limits of such assays.
In experiment [2] the target is HLA-B*15:01. In words: IEDB peptide-MHC binding, purified MHC/competitive/fluorescence; filed as Kd, often an IC50 or EC50 that approximates it; ≥ and ≤ were set here for values at or beyond the usual limits of such assays.
Experiment [3] deals with HLA-A*02:06. In words: IEDB peptide-MHC binding, purified MHC/competitive/radioactivity; filed as Kd, often an IC50 or EC50 that approximates it; ≥ and ≤ were set here for values at or beyond the usual limits of such assays.
Experiment [4] concerns the target HLA-A*02:01. Described as above.
The target in experiment [5] is HLA-B*58:01. In words: IEDB peptide-MHC binding, purified MHC/direct/fluorescence; filed as Kd, often an IC50 or EC50 that approximates it; ≥ and ≤ were set here for values at or beyond the usual limits of such assays.
Experiment [6] addresses HLA-A*11:01. The experiment is described as above.
Experiment [7] addresses HLA-A*24:03. The experiment is described as above.
The target in experiment [8] is HLA-B*15:01. The description is as above.
Experiment [9] concerns the target HLA-A*69:01. The description is as above.
Experiment [10] has as its target HLA-B*44:02. Described as above.
For experiment [11], the target named is HLA-A*03:01. The experiment is described as above.
The target of experiment [12] is HLA-B*07:02. The experiment is described as above.
The target in experiment [13] is HLA-A*26:01. The description is as above.
Experiment [14] deals with HLA-A*31:01. Described as above.
In experiment [15] the target is HLA-B*08:01. The description is as above.
Experiment [16] addresses HLA-B*27:05. Described as above.
Experiment [17] concerns the target HLA-A*02:01. The experiment is described as above.
For experiment [18], the target named is HLA-B*40:01. The experiment is described as above.
In experiment [19] the target is HLA-A*01:01. The description is as above.
The target of experiment [20] is HLA-A*02:02. As to the kind of experiment: IEDB peptide-MHC binding, purified MHC/competitive/radioactivity; filed as Kd, often an IC50 or EC50 that approximates it; ≥ and ≤ were set here for values at or beyond the usual limits of such assays.
Experiment [21] deals with HLA-A*02:03. Described as above.
In experiment [22] the target is HLA-B*35:01. The description is as above.
Experiment [23] deals with HLA-A*02:01. In words: IEDB peptide-MHC binding, purified MHC/competitive/fluorescence; filed as Kd, often an IC50 or EC50 that approximates it; ≥ and ≤ were set here for values at or beyond the usual limits of such assays.
Experiment [24] addresses HLA-B*15:01. As to the kind of experiment: IEDB peptide-MHC binding, purified MHC/competitive/radioactivity; filed as Kd, often an IC50 or EC50 that approximates it; ≥ and ≤ were set here for values at or beyond the usual limits of such assays. The conditions noted are these: source organism: Dengue virus 1 Brazil/97-11/1997.
Experiment [25] concerns the target HLA-B*53:01. The description is as above. The conditions noted are these: source organism: Dengue virus 1 Brazil/97-11/1997.
Experiment [26] has as its target HLA-B*57:01. As to the kind of experiment: IEDB peptide-MHC binding, purified MHC/direct/fluorescence; filed as Kd, often an IC50 or EC50 that approximates it; ≥ and ≤ were set here for values at or beyond the usual limits of such assays. Conditions: source organism: Campylobacter jejuni.
Experiment [27] addresses HLA-A*30:01. As to the kind of experiment: IEDB peptide-MHC binding, purified MHC/competitive/radioactivity; filed as Kd, often an IC50 or EC50 that approximates it; ≥ and ≤ were set here for values at or beyond the usual limits of such assays. The conditions noted are these: source organism: Dengue virus 3 Martinique/1243/1999.
For experiment [28], the target named is HLA-B*39:01. As to the kind of experiment: IEDB peptide-MHC binding, purified MHC/competitive/fluorescence; filed as Kd, often an IC50 or EC50 that approximates it; ≥ and ≤ were set here for values at or beyond the usual limits of such assays. Conditions: source organism: Vibrio parahaemolyticus AQ3810.
Experiment [29] deals with HLA-B*51:01. Described as above. The conditions noted are these: source organism: Listeria monocytogenes FSL J1-194.
The target of experiment [30] is HLA-A*24:02. As to the kind of experiment: IEDB peptide-MHC binding, purified MHC/competitive/radioactivity; filed as Kd, often an IC50 or EC50 that approximates it; ≥ and ≤ were set here for values at or beyond the usual limits of such assays. The conditions noted are these: source organism: Dengue virus 2 Jamaica/1409/1983.
The mark [31] stands for this setting: source organism: Dengue virus 4 Philippines/H241/1956.
The mark [32] stands for this setting: source organism: Dengue virus 2 Jamaica/1409/1983.
Setting [33] is: source organism: Vibrio vulnificus.
[34] abbreviates: source organism: Trypanosoma cruzi.
Setting [35] is: source organism: Dengue virus 1 Brazil/97-11/1997.
Setting [36] is: source organism: Giardia lamblia ATCC 50803.
The mark [37] stands for this setting: source organism: Rickettsia sibirica.
[38] abbreviates: source organism: Lassa virus Josiah.
[39] abbreviates: source organism: Shigella dysenteriae.
Where [40] appears, read: source organism: Dengue virus 1 Singapore/S275/1990.
The mark [41] stands for this setting: source organism: Escherichia coli O139:H28 str. E24377A.
[42] abbreviates: source organism: Cryptosporidium parvum.
Setting [43] is: source organism: Hepacivirus hominis.

Our source for the Kd values is the Immune Epitope Database (IEDB).

In the case of ITVSGLYPL, the Kd in experiment [1] (setting [31]) is 0.0123 µM.

As for MTGPLVAGGL, the Kd in experiment [1] (setting [32]) was determined as 0.0216 µM.

In [2] (source organism: Influenza A virus (A/Memphis/1/1978(H1N1))), ILWILDRLF yielded a Kd of at least 20 µM.

For the sequence TLENERGEL, the Kd was at least 21.5 µM in experiment [1] (source organism: Homo sapiens), at least 45.6 µM in [3] (source organism: Homo sapiens) and at least 28.6 µM in [4] (source organism: Homo sapiens).

For the sequence GSEVPGFCH, the Kd in [5] (setting [33]), in experiment [6] (setting [33]), in experiment [7] (setting [33]), in [8] (setting [33]), in experiment [9] (setting [33]) and in [10] (setting [33]) was at least 20 µM throughout. The Kd in experiment [11] (setting [33]), in experiment [12] (setting [33]), in experiment [13] (setting [33]), in experiment [14] (setting [33]), in experiment [15] (setting [33]) and in experiment [16] (setting [33]) was at least 20 µM each time. In addition, the Kd in experiment [17] (setting [33]), in experiment [18] (setting [33]) and in experiment [19] (setting [33]) was at least 20 µM in each case.

As for ELVDTTEMY, the Kd in experiment [2] (source organism: Mycobacterium tuberculosis H37Rv) is 0.324 µM; in experiment [13] (source organism: Mycobacterium tuberculosis variant bovis), 0.207 µM.

For FANHAFTLV, the dissociation constant Kd was found to be 0.0327 µM in experiment [20] (setting [34]); 0.0232 µM in [1] (setting [34]); 0.000226 µM in experiment [21] (setting [34]); 0.0012 µM in experiment [3] (setting [34]); 0.0687 µM in experiment [4] (setting [34]).

As for MKLVMAFIAF, in experiment [22] (setting [35]), the Kd came to 1.83 µM.

LPGADTQGSN: the Kd in experiment [22] (setting [32]) came to 2.84 µM.

Regarding EMKLRQKQL, the Kd was at least 20 µM in [23] (setting [36]) and 0.038 µM in [15] (setting [36]).

IAMTDTTPF: the Kd was found to be 0.00425 µM in experiment [24], 0.00118 µM in experiment [22] (setting [35]) and 0.172 µM in [25].

For KSNKIRGRM, the Kd in [5] (source organism: Campylobacter jejuni) is 0.192 µM; in experiment [26], 0.988 µM.

On to ASDRISGIL, for which the dissociation constant Kd in experiment [5] (setting [37]) was at least 20 µM; in [6] (setting [37]), at least 20 µM; in experiment [7] (setting [37]), at least 20 µM; in [8] (setting [37]), 5.16 µM; in experiment [9] (setting [37]) it was at least 20 µM; in experiment [10] (setting [37]), at least 20 µM. For the same sequence, the Kd is at least 20 µM in experiment [11] (setting [37]); 14.6 µM in [12] (setting [37]); at least 20 µM in experiment [13] (setting [37]); at least 20 µM in experiment [14] (setting [37]); at least 20 µM in experiment [15] (setting [37]); at least 20 µM in experiment [16] (setting [37]). Besides, the Kd in experiment [17] (setting [37]) was at least 20 µM; in experiment [18] (setting [37]), 1.46 µM; in experiment [19] (setting [37]) it was 6.55 µM.

Take ESLETLMLV: the Kd in experiment [1] (setting [31]) is 0.162 µM.

Take MVHQIFGSA: the Kd came out at 0.0167 µM in [1] (source organism: Dengue virus 3 Martinique/1243/1999) and 0.0296 µM in [27].

As to IANQAAVLM, the Kd in experiment [22] (setting [31]) was 0.0751 µM.

In the case of RLLGTFTWTL, the Kd in [20] (setting [38]) was 0.117 µM; in experiment [1] (setting [38]) it was at least 5 µM; in experiment [21] (setting [38]), 0.106 µM; in [3] (setting [38]) it was 0.00755 µM.

Take AEMRETHWL: the Kd is at least 20 µM in experiment [5] (setting [39]); at least 20 µM in experiment [6] (setting [39]); at least 20 µM in experiment [9] (setting [39]); 2 µM in experiment [10] (setting [39]); at least 20 µM in [11] (setting [39]); at least 20 µM in experiment [12] (setting [39]). The Kd is at least 20 µM in [13] (setting [39]); at least 20 µM in experiment [14] (setting [39]); at least 20 µM in experiment [15] (setting [39]); at least 20 µM in experiment [16] (setting [39]); at least 20 µM in [17] (setting [39]); 0.00621 µM in experiment [18] (source organism: Escherichia coli). Besides, the Kd in experiment [19] (setting [39]) was at least 20 µM.

THPERTLRL: in [28], the Kd turned out to be 2.5 µM.

Consider SSVLLWMASV, for which the Kd in experiment [1] (setting [40]) was 0.0452 µM.

Consider MAIGIVSIL, for which the Kd in [1] (setting [35]) was 0.00239 µM.

Take KMSGKTPAV: the figures for the Kd in [2] (setting [41]) and in experiment [23] (setting [41]) were 1.16 µM and 0.0017 µM, respectively.

With RLLRMNNEN, the Kd in [5] (setting [42]), in [6] (setting [42]), in experiment [8] (setting [42]), in [9] (setting [42]), in [10] (setting [42]) and in [11] (setting [42]) was at least 20 µM throughout. In addition, the Kd in experiment [13] (setting [42]), in experiment [14] (setting [42]), in [15] (setting [42]), in [16] (setting [42]), in experiment [17] (setting [42]) and in [18] (setting [42]) was at least 20 µM throughout. The Kd in experiment [19] (setting [42]) is at least 20 µM.

DLENRCQSL: the Kd was 12.4 µM in [20] (source organism: Homo sapiens), at least 107 µM in experiment [1] (source organism: Homo sapiens), at least 32.8 µM in experiment [21] (source organism: Homo sapiens) and at least 78.7 µM in experiment [3] (source organism: Homo sapiens).

Turning to KLKNKHEAMI, the Kd in [1] (source organism: Homo sapiens) was 10.3 µM; in experiment [3] (source organism: Homo sapiens) it was at least 50.3 µM.

With LSMGLIAIAV, the results for the Kd in experiment [1] (setting [31]) and in [3] (setting [31]) were 0.588 µM and 0.00523 µM, respectively.

With MAVGIVSILL, the Kd in experiment [1] (setting [40]) was found to be 0.00558 µM.

Regarding YPKTKLTDWD, the Kd in experiment [22] (setting [31]) turned out to be 1.31 µM.

As to LKYAPFFQV, the Kd in experiment [29] was at least 20 µM.

As for LAYTIGTTHF, the Kd is 0.23 µM in experiment [30] and 1.41 µM in [22] (setting [32]).

Consider KLRGMGFNAV, for which the Kd in experiment [20] (setting [43]) was 0.161 µM; in experiment [1] (setting [43]), at least 40.6 µM; in [21] (setting [43]) it was 0.00205 µM; in experiment [3] (setting [43]) it was 0.496 µM; in [4] (setting [43]), 0.454 µM.

By Kd is commonly meant a measure of binding affinity in units of concentration.
